From patent US20220194983A1 (Bicycle, published 2022)
Numbered stars: 1 amine (or outer) side, 2 acyl side, 3 side chain; on linkers, the order of the positions; unused ones are H or OH. Bridge positions count the residues as written; N and C are the ends. Square brackets hold non-standard residues; d marks the D form. Ends that are not written are not given here. TBMB = c1c(C[*:1])cc(C[*:3])cc1C[*:2]; Dap(Me) = CNC[C@H](N)C(=O)O

Tests used:
[1] = molecular target: T1, prostate-specific membrane antigen (PSMA) (human, UniProt Q04609 44-750, limits assumed); test: fluorescence polarization, FP (h)
T1 construct: also called Glutamate carboxypeptidase II; GCPII
T1 sequence (Q04609 44-750 limits assumed): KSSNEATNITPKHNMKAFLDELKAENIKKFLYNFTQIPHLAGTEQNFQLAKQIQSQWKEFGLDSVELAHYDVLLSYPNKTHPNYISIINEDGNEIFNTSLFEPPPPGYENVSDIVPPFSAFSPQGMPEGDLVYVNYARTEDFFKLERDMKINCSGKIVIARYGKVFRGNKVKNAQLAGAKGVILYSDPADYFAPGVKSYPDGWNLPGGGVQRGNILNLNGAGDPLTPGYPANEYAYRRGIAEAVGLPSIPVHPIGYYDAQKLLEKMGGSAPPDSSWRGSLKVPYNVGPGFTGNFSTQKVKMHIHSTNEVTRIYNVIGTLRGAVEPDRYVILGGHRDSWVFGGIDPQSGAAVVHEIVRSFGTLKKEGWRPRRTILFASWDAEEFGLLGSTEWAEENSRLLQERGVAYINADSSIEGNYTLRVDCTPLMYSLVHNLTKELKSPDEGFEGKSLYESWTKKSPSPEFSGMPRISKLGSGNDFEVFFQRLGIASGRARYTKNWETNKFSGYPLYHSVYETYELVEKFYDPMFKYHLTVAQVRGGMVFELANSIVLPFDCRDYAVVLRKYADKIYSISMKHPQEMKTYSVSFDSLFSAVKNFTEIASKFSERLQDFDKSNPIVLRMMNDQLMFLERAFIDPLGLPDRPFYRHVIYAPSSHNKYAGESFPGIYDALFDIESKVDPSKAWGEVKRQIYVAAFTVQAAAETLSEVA

[2] = molecular target: T1, prostate-specific membrane antigen …; test: cell-based or functional assay
[3] = molecular target: T1, prostate-specific membrane antigen …; test: fluorescence polarization binding assay
Experimental: PSMA binding was measured using the fluorescence polarization assay methodology described in Shen et al (2013) PLOS ONE 8(7), e68339 and PSMA enzyme inhibition was measured using the methodology described in WO 2009/070302.

Binder	Ki [1] [nM]	Enzyme inhibition IC50 [2] [nM]	Ki [3] [nM]
EVCWDCFMMEDGTCAXXXXXXK (N-terminal acetyl; D-Glu at 1; Cys 3, 6 and 14 joined by thioether linkages to TBMB scaffold; X16-X21 = Sar; D-Lys at 22) [21-31-04-T01-N007]	30	–	–
FCSECYMMEDGTCA (linker 2-5-13 via TBMB) [21-31-11-T01-N001]	6	–	–
ACMVCHMMEDGTCA (linker 2-5-13 via TBMB) [21-31-N002]	40	695	–
EVCWD[Dap(Me)]FMMEDGT[Dap(Me)]A (linker 3-6-14 via TBMB, Bicyclic peptide on TBMB scaffold) [21-31-04-T01-N017]	–	–	700
CIECYIMEDGTCA (linker 1-4-12 via TBMB) [21-31-01-N001]	70	–	–
EVCWDCFMMEDGTCA (linker 3-6-14 via TBMB, Bicyclic peptide on TBMB scaffold, all thioether) [21-31-04-T01-N001]	–	–	3
